Measured values taken from the DeepSol protein solubility set.

assay: soluble on expression in E. coli; label from the status in PepcDB or PDB records

| Sequence | soluble on expression in E. coli |
| --- | --- |
| MKHHHHHHQGKITLYEDRGFQGRHYECSSDHTNLQPYLSRCNSARVDSGCWMLYEQPNYSGLQYFLRRGDYADHQQWMGLSDSVRSCRLIPHSGSHRIRLYEREDYRGQMIEFTEDCSCLQDRFRFNEIHSLNVLEGSWVLYELSNYRGRQYLLMPGDYRRYQDWGATNARVGSLRRVIDFS | soluble |
| MILREFCAENLTDLTRLDKAIISRVELCDNLAVGGTTPSYGVIKEANQYLHEKGISVAVMIRPRGGNFVYNDLELRIMEEDILRAVELESDALVLGILTSNNHIDTEAIEQLLPATQGLPLVFHMAFDVIPKSDQKKSIDQLVALGFTRILLHGSSNGEPIIENIKHIKALVEYANNRIEIMVGGGVTAENYQYICQETGVKQAHGTRITQMAGDPLEHHHHHH | soluble |
| MENMENDENIVVGPKPFYPIEEGSAGTQLRKYMERYAKLGAIAFTNAVTGVDYSYAEYLEKSCCLGKALQNYGLVVDGRIALCSENCEEFFIPVIAGLFIGVGVAPTNEIYTLRELVHSLGISKPTIVFSSKKGLDKVITVQKTVTTIKTIVILDSKVDYRGYQCLDTFIKRNTPPGFQASSFKTVEVDRKEQVALIMNSSGSTGLPKGVQLTHENTVTRFSHARDPIYGNQVSPGTAVLTVVPFHHGFGMFTTLGYLICGFRVVMLTKFDEETFLKTLQDYKCTSVILVPTLFAILNKSELLNKYDLSNLVEIASGGAPLSKEVGEAVARRFNLPGVRQGYGLTETTSAIIITPEGDDKPGASGKVVPLFKAKVIDLDTKKSLGPNRRGEVCVKGPMLMKGYVNNPEATKELIDEEGWLHTGDIGYYDEEKHFFIVDRLKSLIKYKGYQVPPAELESVLLQHPSIFDAGVAGVPDPVAGELPGAVVVLESGKNMTEKEVMDYVASQVSNAKRLRGGVRFVDEVPKGLTGKIDGRAIREILKKPVAKM | soluble |
| RMEIVKIPVVVHVVWNEEEENISDAQIQSQIDILNKDFRKLNSDVSQVPSVWSNLIADLGIEFFLATKDPNGNQTTGITRTQTSVTFFTTSDEVKFASSGGEDAWPADRYLNIWVCHVLKSEIGQDILGYAQFPGGPAETDGVVIVDAAFGTTGTALPPFDKGRTATHEIGHWLNLYHIWGDELRFEDPCSRSDEVDDTPNQADPNFGCPSYPHVSCSNGPNGDMFMNYLDYVDDKCMVMFTQGQATRVNACLDGPRSSFLA | soluble |
| MAFQLEMVTRETVVIRLFGELDHHAVEQIRAKISTAIFQGAVTTIIWNFERLSFMDSSGVGLVLGRMRELEAVAGRTILLNPSPTVRKVFQFSGLGPWMMDATEEEAIDRVRGIVNG | soluble |
| MSLDIAVVGIGYVGLVSATCFAELGANVRCIDTDRNKIEQLNSGTIPIYEPGLEKMIARNVKAGRLRFGTEIEQAVPEADIIFIAVGTPAGEDGSADMSYVLDAARSIGRAMSRYILIVTKSTVPVGSYRLIRKAIQEELDKREVLIDFDIASNPEFLKEGNAIDDFMKPDRVVVGVDSDRARELITSLYKPMLLNNFRVLFMDIASAEMTKYAANAMLATRISFMNDVANLCERVGADVSMVRLGIGSDSRIGSKFLYPGCGYGGSCFPKDVKALIRTAEDNGYRMEVLEAVERVNEKQKSILFDKFSTYYKGNVQGRCVAIWGLSFKPGTDDMREAPSLVLIEKLLEVGCRVRVYDPVAMKEAQKRLGDKVEYTTDMYDAVRGAEALFHVTEWKEFRMPDWSALSQAMAASLVIDGRNVYELPADSDFTLLNIGNSAIESEGHHHHHH | soluble |
| MGDDEARSWIRGDETAKQMLSRVLKDRAFLLIPPLHRVPLRAGNVVEITGASTSAKTQILIQAAISCILPKTWNGIHYGGLGKLVLFLDLDCRFDVLRLSQMLKHRLLQANWLGNGAWWQLEESNVKSCKSAEEKTKTVFDEELYASCMKRFLYVRCYDSLELLSSLKTLHYRIQQQEACGSQVGVLMIDSIGAFHWTDRLSSSLALETHNRKSLSLTNVVETIVQELKKLLLVHSLVVLATKGTIYEEKYPANENNRKVSSNDHFSGNVASKAQQPPFREFMPSSWQAFVTHKIIIRKSADYQSLQTGQQNLLAYSLEWLQPQLSRIDRFIVDDVRKLTTIKPFYSKLLLIYIVIPASSSHAVWYCHCLVT | soluble |
| GLESFSLTSHEKKFGVNIEFSDVNFSYPKQTNHRTLKSINFFIPSGTTCALVGHTGSGKSTIAKLLYRFYDAEGDIKIGGKNVNKYNRNSIRSIIGIVPQDTILFNETIKYNILYGKLDATDEEVIKATKSAQLYDFIEALPKKWDTIVGNKGMKLSGGERQRIAIARCLLKDPKIVIFDEATSSLDSKTEYLFQKAVEDLRKNRTLIIIAHRLSTISSAESIILLNKGKIVEKGTHKDLLKLNGEYAEMWNMQSGGNDI | soluble |
| MSLGILEDKKRARIFYRYFSKIYDYINPIFYSDKMRKTVVDMADIDAESLVLEVGCGTGFTTEEIVRRIGEERVVAVDITPEQMMKARAKMGGVNYFLGDAENLPFKDNSFDAAISAGSIEYWPNPQRGIEEMARVTKSGGKVVILAPRKPDNFAVRKFAESIMLFPSTQQCVYWFMKAGLEDIRFVETGPYRFWSKLVVIISGTVPEGHHHHHH | soluble |
| MSLRSIPSALQAKLDSGATTLARCWIVTRRDGVVMGFTDHDRDLTIGGVLCRAATGFTASEATSRFDLAVDGGEISGAFSDDSLSEADLAAGRYDAAGVATWLVDWSDVSLRIMIARGTIGEVRREGAAFTAELRGLADALAQDSGRLFTARCGVDLGDGKCRVDLASSAFRRSGTVTAVEGTSIVAVSGMSGLAAGWFTAGRLNWTGGANAGLAIEVKQHRVVAGVVRLSLWRAMAEPIAIGDSFVVTAGCDKSFTTCRDRFANTSNFRGFPQIPGNDFVVSYPLPGSPDNGNGSKALEGHHHHHH | soluble |
| ADFDYVVVGAGNAGNVVAARLTEDPDVSVLVLEAGVSDENVLGAEAPLLAPGLVPNSIFDWNYTTTAQAGYNGRSIAYPRGRMLGGSSSVHYMVMMRGSTEDFDRYAAVTGDEGWNWDNIQQFVRKNEMVVPPADNHNTSGEFIPAVHGTNGSVSISLPGFPTPLDDRVLATTQEQSEEFFFNPDMGTGHPLGISWSIASVGNGQRSSSSTAYLRPAQSRPNLSVLINAQVTKLVNSGTTNGLPAFRCVEYAEQEGAPTTTVCAKKEVVLSAGSVGTPILLQLSGIGDENDLSSVGIDTIVNNPSVGRNLSDHLLLPAAFFVNSNQTFDNIFRDSSEFNVDLDQWTNTRTGPLTALIANHLAWLRLPSNSSIFQTFPDPAAGPNSAHWETIFSNQWFHPAIPRPDTGSFMSVTNALISPVARGDIKLATSNPFDKPLINPQYLSTEFDIFTMIQAVKSNLRFLSGQAWADFVIRPFDPRLRDPTDDAAIESYIRDNANTIFHPVGTASMSPRGASWGVVDPDLKVKGVDGLRIVDGSILPFAPNAHTQGPIYLVGKQGADLIKADQ | soluble |
| MSAKLISVTKPVVEGVNTAEELIAYAARVSNPENQINNKTASGLLKYCIRHKHWSIFETAFMTLELKTSRGIAAQVIRHRSFHFQEFSQRYASVMETPPPHQARFQDHKNRQNSLDTVPEDDQTWWATEQEKLYAQSMELYNKALEKGIAKECARFILPLSTPTTIYMSGTIRDWIHYIELRTSNGTQREHIDLANACKEIFIKEFPSIAKALDWVH | soluble |
| MRNTIEIEDPNHRPFTISSNYAYYIGYLDLRPDGMGYHKRGEMNGLWYPPLRVLKNIYVSDGKTVFKPAHAEIGYSEARFEFYGTTLQISFQDDNDFEIAVKNASNDVRKLIVELHPETVWYTVNDTRIKVNRRSAIIYSHMFPETRLRIAASSEFSIENGRLSLLADGKSSLRISSACLHSHRPPIRVNRYRDIDRFSLLRGGGQIGENFRTAKDNLIRLSLINQETGYGLTAGHPDFPWYFGIDTLLSFNGILDAGLFELAFGSLNILARYSKSGKIPHEILTSGKVYNDGDLEETALFPYAVFKYAEWAGYTEEMRHLATIASESFNYLFAHGFQGRGIMEDPKAGEGVDIDTISFTIMSLMELQKVMDMDQEAFGGIADAVKPTEAIDALRKTVQSFWMSERRTFANRIVDGVPVDLGFWTSIIPFYTGIAGIDQYRKFVSDGGGLSRISSSSGIVVDASGNSMPVNTGMFVLGSIRYGDAENAARYFKMLDRSLGLFSPGAYPEISNNPQGCYLQAWSAAIYIESIVEGFFGIHSEGGRLISKPFNSSLMPGGATLKNVRFRNKYYDFIL | not soluble |
| MANDEQQQLLNKIVRDDSQDKQVLLMINGAAGTGKTFLIKLIENSMNRSVRKRVVLMTGSTGKAAKAIGGRTLHCTIGLPNEKPEDLERLKYQAFICVTTRLIIIDEITLLASWHLDATDMVLKRTPKRTDALFGGLSIILVGDLRQLNLGGWRGKKQIDTVFIKVGGYPDPISCQNVCD | not soluble |
| MAHHHHHHMTTYTLVLLRHGESTWNKENKFTGWTDVPLSEKGEEEAIAAGKYLKEKNFKFDVVYTSVLKRAICTAWNVLKTADLLHVPVVKTWRLNERHCGSLQGLNKSETAKKYGEEQVKIWRRSYDIPPPKLDKEDNRWPGHNVVYKNVPKDALPFTECLKDTVERVLPFWFDHIAPDILANKKVMVAAHGNSLRGLVKHLDNLSEADVLELNIPTGVPLVYELDENLKPIKHYYLLDSEELKKKMDEVANQGKAK | soluble |
| MAHHHHHHMRIHAPPYPFFNFLFLCFHTEPRRIPRRTVSYTQVVPASIFHGMADRALTCVRPAAYFLPGDRASSFLSSGAILLFEERVCTPHKASESTVCPVAGHSKVFAPSCYVEPFSIIEVALEERRNRVGRMSWCFRLFAIKLRGGNPTQFPPPASSVEHVQV | not soluble |
| GIDPFTKMGGDRRPITILTSDLRGFTSTSEGLNPEEVVKVLNIYFGKMADVITHHGGTIDEFMGDGILVLFGAPTSQQDDALRAVACGVEMQLALREVNQQVTGLGLQPLEMGIGINTGEVVVGNIGSEKRTKYGVVGAQVNLTYRIESYTTGGQIFISSTTLEAAGDRVHVNGNRTVQPKGVKDPVVIWDVAGVGEPYNLSLAVEEQ | soluble |
| MGGSHHHHHHGMASAVNVYSTSVTSDNLSRHDMLAWINESLQLNLTKIEQLCSGAAYCQFMDMLFPGSIALKKVKFQAKLEHEYIQNFKILQAGFKRMGVDKIIPVDKLVKGKFQDNFEFVQWFKKFFDANYDGKDYDPVAARQGQETAVAPSLVAPALNKPKKPLTSSSAAPQRPISTQRTAAAPKAGPGVVRKNPGVGNGDDEAAELMQQVNVLKLTVEDLEKERDFYFGKLRNIELICQENEGENDPVLQRIVDILYATDEGFVIPDEGGPQEEQEEY | not soluble |
| MLFDTHAHLNAVQYEEDLEQVIERARDEGVSHIVVVGFDRPTIDRAIELAERYPFIYAAVGWHPVDAIEMTDDDLQMIEQLAAHPKVVALGEMGLDYHWDKSPKDVQQEVFRQQIRLAKKVKLPIIIHNREATADILKILQEENAAEVGGIMHCFSGSVEVAKQCMDMNFLISLGGPVTFKNAKKPKEVAKEIPLSHLLIETDCPYLTPHPFRGKRNEPSYVKYVAEAIAQIKNISFAEVAETTAENAKKLFAIDR | not soluble |
| MGGSHHHHHHGMASLAPGSSRVELFKRKNSTVPFEESNGTIRERVVHSFRIPTIVNVDGVMVAIADARYETSFDNSFIETAVKYSVDDGATWNTQIAIKNSRASSVSRVMDATVIVKGNKLYILVGSFNKTRNSWTQHRDGSDWEPLLVVGEVTKSAANGKTTATISWGKPVSLKPLFPAEFDGILTKEFIGGVGAAIVASNGNLVYPVQIADMGGRVFTKIMYSEDDGNTWKFAEGRSKFGCSEPAVLEWEGKLIINNRVDGNRRLVYESSDMGKTWVEALGTLSHVWTNSPTSNQQDCQSSFVAVTIEGKRVMLFTHPLNLKGRWMRDRLHLWMTDNQRIFDVGQISIGDENSGYSSVLYKDDKLYSLHEINTNDVYSLVFVRLIGELQLMKSVVRTWKEEDNHLASICTPVVPATPPSKGGCGAAVPTAGLVGFLSHSANGSVWEDVYRCVDANVANAERVPNGLKFNGVGGGAVWPVARQGQTRRYQFANYRFTLVATVTIDELPKGTSPLLGAGLEGPGDAKLLGLSYDKNRQWRPLYGAAPASPTGSWELHKKYHVVLTMADRQGSVYVDGQPLAGSGNTVVRGATLPDISHFYIGGPRSKGAPTDSRVTVTNVVLYNRRLNSSEIRTLFLSQDMIGTDGGAGTAA | soluble |
